Read-outs that look alike come from different tables or passages of the source.
Legend:
[1] = target: T1, human TPBG (trophoblast glycoprotein), full length, cell surface expressed (human, UniProt Q13641 32-420)
T1 sequence: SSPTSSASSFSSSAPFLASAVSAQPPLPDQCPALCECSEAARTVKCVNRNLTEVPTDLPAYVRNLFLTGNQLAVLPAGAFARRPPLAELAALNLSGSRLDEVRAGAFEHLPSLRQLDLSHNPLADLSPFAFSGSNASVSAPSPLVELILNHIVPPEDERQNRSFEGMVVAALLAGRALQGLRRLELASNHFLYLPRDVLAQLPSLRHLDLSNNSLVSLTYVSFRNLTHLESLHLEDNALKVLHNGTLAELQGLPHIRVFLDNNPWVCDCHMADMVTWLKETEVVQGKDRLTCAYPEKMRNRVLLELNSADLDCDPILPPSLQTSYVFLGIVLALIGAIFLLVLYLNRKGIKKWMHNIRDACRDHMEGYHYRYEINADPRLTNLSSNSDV

[2] = target: T1, human TPBG (trophoblast glycoprotein), …; assay: cell-based or functional assay
[3] = target: T1, human TPBG (trophoblast glycoprotein), …; assay: flow cytometry on SW620 clone 4 cells; ratio of MFI; replicate 1
[4] = target: T1, human TPBG (trophoblast glycoprotein), …; assay: cell ELISA on MCF7 cells; titrated from 5 µg/ml
[5] = target: T1, human TPBG (trophoblast glycoprotein), …; assay: flow cytometry on SW620 clone 4 cells; ratio of MFI; replicate 2
[6] = target: T1, human TPBG (trophoblast glycoprotein), …; assay: cell-based or functional assay; remark: listed apart in the source
[7] = target: T2, huTPBG (recombinant human TPBG immobilised on the Biacore chip) (human, UniProt Q13641 32-355, limits assumed); assay: SPR Biacore T200; huTPBG amine-coupled, Fab injected
T2 construct: also called human TPBG antigen
T2 sequence: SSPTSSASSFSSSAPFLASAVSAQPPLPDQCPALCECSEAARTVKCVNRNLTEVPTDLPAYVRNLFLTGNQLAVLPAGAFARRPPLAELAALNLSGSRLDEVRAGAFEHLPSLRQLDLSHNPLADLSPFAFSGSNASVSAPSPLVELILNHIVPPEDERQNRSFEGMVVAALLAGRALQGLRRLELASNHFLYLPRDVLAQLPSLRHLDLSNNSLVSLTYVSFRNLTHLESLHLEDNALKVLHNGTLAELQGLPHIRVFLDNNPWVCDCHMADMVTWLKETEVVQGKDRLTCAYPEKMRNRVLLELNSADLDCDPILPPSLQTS

[8] = target: T3, recombinant extracellular domain of minipig TPBG (Biacore analyte) (minipig); assay: SPR Biacore T200; Fab captured by anti-huFab, minipig TPBG injected
T3 chain: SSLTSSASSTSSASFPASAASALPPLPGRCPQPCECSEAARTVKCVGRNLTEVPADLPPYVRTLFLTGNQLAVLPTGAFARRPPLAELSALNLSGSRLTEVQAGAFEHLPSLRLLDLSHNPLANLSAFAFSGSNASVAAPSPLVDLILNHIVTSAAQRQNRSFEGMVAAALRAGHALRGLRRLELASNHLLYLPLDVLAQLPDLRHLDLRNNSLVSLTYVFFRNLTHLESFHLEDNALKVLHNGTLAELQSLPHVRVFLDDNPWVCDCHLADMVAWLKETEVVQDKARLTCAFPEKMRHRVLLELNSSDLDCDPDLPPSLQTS

[9] = target: T1, human TPBG (trophoblast glycoprotein), …; assay: cell-based or functional assay; remark: listed apart in the source
[10] = target: T4, minipig TPBG, full length, cell surface expressed on CHO-K1 cells (minipig); assay: cell-based or functional assay
T4 chain: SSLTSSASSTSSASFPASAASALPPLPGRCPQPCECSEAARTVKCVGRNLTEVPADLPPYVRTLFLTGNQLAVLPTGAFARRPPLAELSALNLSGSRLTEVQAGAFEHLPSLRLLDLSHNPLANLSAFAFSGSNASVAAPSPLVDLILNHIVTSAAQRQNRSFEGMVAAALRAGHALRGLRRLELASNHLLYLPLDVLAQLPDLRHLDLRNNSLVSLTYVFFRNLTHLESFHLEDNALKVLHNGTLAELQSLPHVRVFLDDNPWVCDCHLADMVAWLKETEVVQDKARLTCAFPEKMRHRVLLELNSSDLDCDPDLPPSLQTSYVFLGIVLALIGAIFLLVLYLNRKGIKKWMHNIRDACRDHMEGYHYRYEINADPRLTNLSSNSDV

[11] = target: T1, human TPBG (trophoblast glycoprotein), …; assay: cell-based or functional assay; remark: listed apart in the source
[12] = target: T1, human TPBG (trophoblast glycoprotein), …; assay: cell-based or functional assay; remark: listed apart in the source
[13] = target: T5, human TPBG extracellular domain, His6Avi, biotinylated (human, biotinylated); assay: ELISA; biotinylated TPBG-AviHis on streptavidin plate; Fab titrated from 2 µg/ml
T5 construct: also called huTPBG; human TPBG-AviHis
T5 chain: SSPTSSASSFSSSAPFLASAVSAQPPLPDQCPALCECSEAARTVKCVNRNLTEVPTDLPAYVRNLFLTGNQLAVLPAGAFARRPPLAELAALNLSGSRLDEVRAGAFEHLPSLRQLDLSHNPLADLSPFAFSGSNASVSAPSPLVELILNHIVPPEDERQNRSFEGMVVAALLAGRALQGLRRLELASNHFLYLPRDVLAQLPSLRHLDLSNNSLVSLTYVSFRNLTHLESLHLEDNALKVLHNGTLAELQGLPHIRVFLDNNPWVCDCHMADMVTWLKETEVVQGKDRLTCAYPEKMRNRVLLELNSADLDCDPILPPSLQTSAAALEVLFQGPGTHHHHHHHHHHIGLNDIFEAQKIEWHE

[14] = target: T6, minipig TPBG extracellular domain, His6Avi, biotinylated (minipig, biotinylated); assay: as above
T6 construct: also called mpTPBG; minipig TPBG-AviHis
T6 chain: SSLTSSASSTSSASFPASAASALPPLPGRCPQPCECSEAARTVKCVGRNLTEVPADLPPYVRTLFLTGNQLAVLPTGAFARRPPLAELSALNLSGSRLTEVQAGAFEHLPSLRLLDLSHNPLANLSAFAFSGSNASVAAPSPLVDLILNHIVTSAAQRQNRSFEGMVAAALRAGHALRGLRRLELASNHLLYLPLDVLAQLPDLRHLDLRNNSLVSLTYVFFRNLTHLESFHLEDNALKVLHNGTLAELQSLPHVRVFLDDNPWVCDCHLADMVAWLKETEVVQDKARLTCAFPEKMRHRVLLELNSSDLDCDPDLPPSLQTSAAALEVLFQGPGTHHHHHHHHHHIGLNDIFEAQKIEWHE

B1: 051 Fab coupled to PE24 (LR8M) via sortase coupling (Fab)
heavy: EVQLLESGGGLLQPGGSLRLSCAASGFTFSIYWMTWVRQAPGKGLEWVSAISGSGGSTYYADSVKGRFTISRDNSKNTLYLQMNSLRAEDTAVYYCAKDYYSNVYWGQGTLVTVSSASTKGPSVFPLAPSSKSTSGGTAALGCLVKDYFPEPVTVSWNSGALTSGVHTFPAVLQSSGLYSLSSVVTVPSSSLGTQTYICNVNHKPSNTKVDKKVEPKSCGGGSLPETGGGRHRQPRGWEQLYPTGAEFLGDGGAVSFSTRGTQNWTVERLLQAHRQLEEGGYVFVGYHGTFLEAAQSIVFGGVRARSQDLDAIWAGFYIAGDPALAYGYAQDQEPDAAGRIRNGALLRVYVPRSSLPGFYATSLTLAAPEAAGEVERLIGHPLPLRLDAITGPEESGGRLETILGWPLAERTVVIPSAIPTDPRNVGGDLDPSSIPDSEAAISALPDYASQPGKPPREDL
light: DIQMTQSPSSVSASVGDRVTITCRASQGIYSWLAWYQQKPGKAPKLLIYAASSLQSGVPSRFSGSGSGTDFTLTISSLQPEDFATYYCQQSDSPPYTFGQGTKLEIKRTVAAPSVFIFPPSDEQLKSGTASVVCLLNNFYPREAKVQWKVDNALQSGNSQESVTEQDSKDSTYSLSSTLTLSKADYEKHKVYACEVTHQGLSSPVTKSFNRGEC
How did the EC50 [1] turn out when B1 was run?
Its EC50 is 670 pM.

And the “EC50 cytotoxicity, sortase-coupled Fab-PE, MCF7” value [2]?
Its value is 36 pM.

And the “X-fold higher potency compared to TPBG(H8)PE, MCF7” value [2]?
The value was 1.7 fold.

B2: H8 Fab coupled to PE24 (LR8M) via sortase coupling (Fab, V domains shown)
VH: EVQLQQSGPDLVKPGASVKISCKASGYSFTGYYMHWVKQSHGKSLEWIGRINPNNGVTLYNQKFKDKAILTVDKSSTTAYMELRSLTSEDSAVYYCARSTMITNYVMDYWGQVTSVTVSS
VL: SIVMTQTPTFLLVSAGDRVTITCKASQSVSNDVAWYQQKPGQSPTLLISYTSSRYAGVPDRFIGSGYGTDFTFTISTLQAEDLAVYFCQQDYNSPPTFGGGTKLEIKR
With B2 as the binder, how does the EC50 [1] read?
Its EC50 is 1560 pM.

And the “EC50 cytotoxicity, sortase-coupled Fab-PE, MCF7” value [2]?
Its value is 59 pM.

B3: 091 Fab coupled to PE24 (LR8M) via sortase coupling (Fab)
heavy: EVHLLESGGGLVHPGGSLRLSCAASGFTFRSDAMHWVRQAPGKGLEWVSGVSGSGGSPYYADSVKGRFTISRDDSKTTLYLQMNSLRAEDTAVYYCATGGSIAGSYYYYPMDVWGQGTTVTVSSASTKGPSVFPLAPSSKSTSGGTAALGCLVKDYFPEPVTVSWNSGALTSGVHTFPAVLQSSGLYSLSSVVTVPSSSLGTQTYICNVNHKPSNTKVDKKVEPKSCGGGSLPETGGGRHRQPRGWEQLYPTGAEFLGDGGAVSFSTRGTQNWTVERLLQAHRQLEEGGYVFVGYHGTFLEAAQSIVFGGVRARSQDLDAIWAGFYIAGDPALAYGYAQDQEPDAAGRIRNGALLRVYVPRSSLPGFYATSLTLAAPEAAGEVERLIGHPLPLRLDAITGPEESGGRLETILGWPLAERTVVIPSAIPTDPRNVGGDLDPSSIPDSEAAISALPDYASQPGKPPREDL
light: not shown
For B3, which EC50 [1] is on record?
The EC50 was 610 pM.

And the “EC50 cytotoxicity, sortase-coupled Fab-PE, MCF7” value [2]?
The value was 33 pM.

What about the “X-fold higher potency compared to TPBG(H8)PE, MCF7” value [2] of the same binder?
Its value is 1.8 fold.

B4: anti-TPBG antibody 097, Fab fragment (Fab, V domains shown)
VH: EVQLLESGGGLAQPGGSLRLSCAASGFTFNNDAMTWVRQAPGKGLEWVSAISGSGGSTYYADSVKGRFTISRDNSKNTLYLQMNSLRAEDTAVYYCAKGGSWGDWYYYFYPMDVWGQGTTVTVSS
VL: not shown
notes: also called Fab4
B4 was tested. Which “Fold change pH 7.2 vs pH 5.5” value [3] did it give?
Its value is 1.2 fold.

And the EC50 [4]?
The EC50 was 0.451 µg/mL.

And the “Fold change pH 7.2 vs pH 5.5” value [5]?
The value was 1.2 fold.

What about the “EC50 cytotoxicity, Fab-PE sandwich construct, H1975, replicate 1” value [6] of the same binder?
Its value is 826 pM.

What about the “EC50 cytotoxicity, Fab-PE sandwich construct, H1975, replicate 2” value [6] of the same binder?
The value was 656 pM.

What about the “EC50 cytotoxicity, Fab-PE sandwich construct, H1975, replicate 3” value [6] of the same binder?
Its value is 706 pM.

What about the Kd [7] of the same binder?
The Kd was 820 pM.

And the koff [7]?
The koff was 0.000814 s⁻¹.

What about the kon [7] of the same binder?
Its kon is 993000 M⁻¹ s⁻¹.

And the Kd [8]?
The Kd was 1350 pM.

What about the koff [8] of the same binder?
Its koff is 0.000254 s⁻¹.

And the kon [8]?
Its kon is 189000 M⁻¹ s⁻¹.

What about the “EC50 cytotoxicity, Fab + anti-kappa-Fab-PE, CHO-K1/human TPBG, replicate 1” value [9] of the same binder?
The value was 300 pM.

What about the “EC50 cytotoxicity, Fab + anti-kappa-Fab-PE, CHO-K1/human TPBG, replicate 2” value [9] of the same binder?
The value was 330 pM.

And the “EC50 cytotoxicity, Fab + anti-kappa-Fab-PE, CHO-K1/minipig TPBG, replicate 1” value [10]?
Its value is 2080 pM.

What about the “EC50 cytotoxicity, Fab + anti-kappa-Fab-PE, CHO-K1/minipig TPBG, replicate 2” value [10] of the same binder?
Its value is 2150 pM.

And the “internalization after 0.5 h, MCF7 cells” value [11]?
The value was 28%.

And the “internalization after 1.0 h, MCF7 cells” value [11]?
The value was 42%.

What about the “internalization after 2.0 h, MCF7 cells” value [11] of the same binder?
The value was 61%.

What about the “EC50 cytotoxicity, Fab-PE sandwich construct, MCF7” value [12] of the same binder?
Its value is 935 pM.

What about the “X-fold higher potency compared to TPBG(H8)PE, MCF7, first experiment” value [12] of the same binder?
Its value is 1.3 fold.

And the “X-fold higher potency compared to TPBG(H8)PE, MCF7, second experiment” value [12]?
Its value is 2.4 fold.

What about the EC50 [13] of the same binder?
Its EC50 is 0.0152 µg/mL.

What about the EC50 [14] of the same binder?
The EC50 was 0.0436 µg/mL.

B5: 097 Fab coupled to PE24 (LR8M) via sortase coupling (Fab)
heavy: EVQLLESGGGLAQPGGSLRLSCAASGFTFNNDAMTWVRQAPGKGLEWVSAISGSGGSTYYADSVKGRFTISRDNSKNTLYLQMNSLRAEDTAVYYCAKGGSWGDWYYYFYPMDVWGQGTTVTVSSASTKGPSVFPLAPSSKSTSGGTAALGCLVKDYFPEPVTVSWNSGALTSGVHTFPAVLQSSGLYSLSSVVTVPSSSLGTQTYICNVNHKPSNTKVDKKVEPKSCGGGSLPETGGGRHRQPRGWEQLYPTGAEFLGDGGAVSFSTRGTQNWTVERLLQAHRQLEEGGYVFVGYHGTFLEAAQSIVFGGVRARSQDLDAIWAGFYIAGDPALAYGYAQDQEPDAAGRIRNGALLRVYVPRSSLPGFYATSLTLAAPEAAGEVERLIGHPLPLRLDAITGPEESGGRLETILGWPLAERTVVIPSAIPTDPRNVGGDLDPSSIPDSEAAISALPDYASQPGKPPREDL
light: not shown
Which results are given for B5?
EC50 [1]: 630 pM; EC50 cytotoxicity, sortase-coupled Fab-PE, MCF7 [2]: 54 pM; X-fold higher potency compared to TPBG(H8)PE, MCF7 [2]: 1.1 fold
